Broadly, the Kd is a measure of binding affinity in units of concentration. A low value points to a tighter complex. In general, IC50 refers to the concentration needed to halve the response being measured.

Results on three molecules are retold here after patent US20160108123A1 (Novartis, published 2016).

The target in assay [1] is T1, human PD-L1 expressed on 300.19 cells (human, UniProt Q9NZQ7 19-290).
T1 construct: whole, on cells; also called huPD-L1; PD-L1-expressing 300.19 cells
The assay can be described thus: semi-quantitative ranking in the binding studies (4th column, p-1058; FACS data, p-1056); high number = poorer binder; the column's head says only 'Rank'.

For the next assay, the target named is T2, human PD-L1 protein (human, UniProt Q9NZQ7 19-238, limits assumed).
T2 construct: Construct not described
The assay can be described thus: Biacore T-100; IgG captured by anti-human Fab on CM5 chip, PD-L1 flowed over (100-1.56 nM), 1:1 fit. As for the experimental part:
(§1) Immobilization was done at 25° C. using a flow rate of 10 μl/min. […] Test antibody was captured on Flow cell FC2, FC3 and FC4. […] Run Biacore Wizards Kinetic/Affinity: association time 120 sec, dissociation 600 sec. (Running buffer HBS-EP+BSA 0.25 mg/ml, Regeneration buffer: 10 mM glycine HCl pH 2.1). Data analyses were done with Biacore T-100 Evaluation software version 2, fit on 1:1.
Background: In SPR one partner is held on a chip, and binding of the other changes the refractive index at the surface.

In another assay the target is rat PD-L1 protein (rat, UniProt D4AE25 19-239). Described as above. As for the experimental part:
as §1

For another assay, the target named is mouse PD-L1 protein (mouse, UniProt Q9EP73 19-238, limits assumed). Described as above. As for the experimental part:
as §1

In another assay the target is T3, cynomolgus PD-L1 protein (cynomolgus, UniProt G7PSE7 19-238).
T3 construct: also called Monkey PD-L1; cyno PD-L1
Described as above. As for the experimental part:
as §1

Assay [2] concerns the target T1, human PD-L1 expressed on 300.19 cells. The experiment in a line: blocking of PE-labelled PD-1-Ig (0.7 µg/mL) binding to PD-L1-expressing 300.19 cells, FACS, 4 C, 4 h. The procedure: (§2) Bound fluorescence was then measured using FACS and IC₅₀ values determined using Prism software.
The target is the same in assay [3]. The assay can be described thus: competition FACS against Alexa 488-labeled murine BAP058 on PD-L1-expressing 300.19 cells. The procedure:
(§3) Incubations with the mAb mixtures having different concentration ratios of test mAb to labeled mAb was at 4° C. for 30 min. Bound labeled murine mAb was then quantified using a FACS machine. The experiment was performed twice.

The target is the same in assay [4]. The experiment in a line: FACS competition; blocking of PE-labelled PD-1-Ig (0.7 ug/mL) on PD-L1-expressing 300.19 cells. The procedure:
as §2

Assay [5] has the same target. The assay can be described thus: FACS competition on PD-L1-expressing 300.19 cells; competitor Alexa 488-labeled murine BAP058. The procedure: as §3

T1 sequence (Q9NZQ7 19-290): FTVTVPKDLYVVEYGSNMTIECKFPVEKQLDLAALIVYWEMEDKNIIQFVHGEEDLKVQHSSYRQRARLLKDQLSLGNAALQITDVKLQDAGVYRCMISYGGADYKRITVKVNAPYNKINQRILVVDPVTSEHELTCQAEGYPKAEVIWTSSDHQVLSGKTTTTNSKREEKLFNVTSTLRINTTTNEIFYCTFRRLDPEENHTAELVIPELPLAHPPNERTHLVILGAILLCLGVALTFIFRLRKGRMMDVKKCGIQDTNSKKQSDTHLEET
rat PD-L1 protein, sequence (D4AE25 entry or part of it limits assumed): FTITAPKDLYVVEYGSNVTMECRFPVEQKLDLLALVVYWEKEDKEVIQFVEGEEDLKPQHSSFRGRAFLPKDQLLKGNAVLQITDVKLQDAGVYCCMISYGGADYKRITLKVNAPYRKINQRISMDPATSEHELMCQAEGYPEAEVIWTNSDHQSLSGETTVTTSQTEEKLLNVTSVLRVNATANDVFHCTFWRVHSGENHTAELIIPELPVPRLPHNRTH
T3 sequence (G7PSE7 entry or part of it): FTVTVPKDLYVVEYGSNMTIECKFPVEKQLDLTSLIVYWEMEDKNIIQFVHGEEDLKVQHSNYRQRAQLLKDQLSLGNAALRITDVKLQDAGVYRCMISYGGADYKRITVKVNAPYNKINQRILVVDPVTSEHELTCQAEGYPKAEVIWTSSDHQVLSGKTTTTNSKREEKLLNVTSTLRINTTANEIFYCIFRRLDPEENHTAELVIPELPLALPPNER
mouse PD-L1 protein, sequence (Q9EP73 19-238 limits assumed): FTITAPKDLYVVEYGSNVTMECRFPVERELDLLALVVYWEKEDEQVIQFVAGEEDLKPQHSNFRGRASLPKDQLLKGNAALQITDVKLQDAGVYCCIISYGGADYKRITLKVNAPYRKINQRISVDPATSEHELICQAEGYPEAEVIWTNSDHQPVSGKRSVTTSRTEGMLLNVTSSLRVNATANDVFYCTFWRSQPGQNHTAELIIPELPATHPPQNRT
T2 sequence (Q9NZQ7 19-238 limits assumed): as the sequence (G7PSE7 entry or part of it) above, with T33A, S34A, N62S, Q68R, R82Q, L173F, A185T, I192T, L215H counted along it

B1: BAP058-hum11 (antibody, human IgG4 S228P, kappa, V domains shown)
VH: EVQLVQSGAEVKKPGATVKISCKVSGYTFTSYWMYWVRQATGQGLEWMGRIDPNSGSTKYNEKFKNRVTITADKSTSTAYMELSSLRSEDTAVYYCARDYRKGLYAMDYWGQGTTVTVSS
VL: DVVMTQSPLSLPVTLGQPASISCKASQDVGTAVAWYQQKPGQAPRLLIYWASTRHTGVPSRFSGSGSGTEFTLTISSLQPDDFATYYCQQYNSYPLTFGQGTKVEIKR
notes: Humanized IgG4(S228P)/human kappa mAb expressed in CHO cells
Regarding B1, the Rank in assay [1] worked out at 4. Further, the Kd with human PD-L1 protein came to 0.931 nM; with rat PD-L1 protein, 1.36 nM; with mouse PD-L1 protein, 0.075 nM; in the assay with cynomolgus PD-L1 protein it was 0.735 nM. In [2], the “IC50 (read off the curve)” value is roughly 0.04 µg/mL. For the same molecule, the “Comp. binding (ratio conc. test mAb / conc. labelled murine BAP058 at the IC50)” value in assay [3] worked out at 1.3.

B2: murine anti-PD-L1 monoclonal antibody BAP058 (antibody, V domains shown)
VH: QVHLQQPGAELVKPGASVKLSCKASGYTFTSYWMYWVKQGPGRGLEWIGRIDPNSGSTKYNEKFKNKATLTVDKSSSTAYMQLSSLTSEDSAVYYCARDYRKGLYAMDYWGQGTSVTVSS
VL: DIVMTQSHKFMSTSVGDRVSITCKASQDVGTAVAWYQQKPGQSPKLLIYWASTRHTGVPDRFTGSGSGTDFTLTISNVQSEDLADYFCQQYNSYPLTFGAGSKLELK
notes: Murine mAb; also called murine mAb BAP058; murine parent mAb
B2 showed an IC50 in assay [4] of 0.3 nM. The “ratio for the IC50 value (concentration of test mAb over labelled murine BAP058)” value in assay [5] is 1.34.

B3: BAP058-hum13 (antibody, human IgG4 S228P, kappa, V domains shown)
VH: EVQLVQSGAEVKKPGATVKISCKVSGYTFTSYWMYWVRQARGQRLEWIGRIDPNSGSTKYNEKFKNRFTISRDNSKNTLYLQMNSLRAEDTAVYYCARDYRKGLYAMDYWGQGTTVTVSS
VL: AIQLTQSPSSLSASVGDRVTITCKASQDVGTAVAWYLQKPGQSPQLLIYWASTRHTGVPSRFSGSGSGTDFTFTISSLEAEDAATYYCQQYNSYPLTFGQGTKVEIKR
notes: as for B1
B3 returned a Rank in assay [1] of 2. Also, the Kd in the assay with human PD-L1 protein stood at 0.137 nM; with rat PD-L1 protein, 0.431 nM; in the assay with mouse PD-L1 protein, 0.04 nM; with cynomolgus PD-L1 protein, 0.431 nM. Further, in assay [2], the “IC50 (read off the curve)” value was roughly 0.04 µg/mL. Also, the “Comp. binding (ratio conc. test mAb / conc. labelled murine BAP058 at the IC50)” value in assay [3] worked out at 2.91.
